Results published in patent US20090036380A1, “Composition And Method For Brain Tumor Therapy” (Yeda Research and Development Co., Ltd., priority 2006, published 2009).

What was measured:
TrkC = target: T1, TrkC (Homo sapiens, UniProt Q16288); test: Co-immunoprecipitation of Ha Karet with TrkC in Hek cells; assay type: binding; details: co-transfected Hek cells
T1 construct: expressed in transfected cells; host or cells: Hek cells
Procedure: (§1) FIGS. 24a-d depict co IP of Ha Karet with TrkA, TrkB, TrkC, p75 from co-transfected Hek cells. Cells were co-transfected with Ha Karet or control vector and TrkA, TrkB, TrkC or p75. Cells were lysed with NP40, the HA-beads (beads conjugated to anti-HA antibody) were blocked with Hek lysate, and elution was done for 30 minutes at 37° C. Proteins from anti-HA-IP (FIGS. 24a and b) or from cell lysates without IP (FIGS. 24c and d) were subjected to Western blot analysis and the membranes were probed with anti pan trk (FIGS. 24a and c) or anti-p75 (FIGS. 24b and d) antibodies. Note the specific co-IP of Karet with TrkA (FIG. 24a, lane 1), Karet with TrkB (FIG. 24a, lane 3), Karet with TrkC (FIG. 24a, lane 5) and the lack of IP between karet and p75 (FIG. 24b, lane 7).

necdin = target: T2, necdin (Homo sapiens, UniProt Q99608); test: Co-immunoprecipitation of Karet with necdin; assay type: binding; details: necdin-PC12 cells, during 50 ng/ml NGF treatment
T2 construct: expressed in transfected cells
T2 sequence (Q99608 1-321): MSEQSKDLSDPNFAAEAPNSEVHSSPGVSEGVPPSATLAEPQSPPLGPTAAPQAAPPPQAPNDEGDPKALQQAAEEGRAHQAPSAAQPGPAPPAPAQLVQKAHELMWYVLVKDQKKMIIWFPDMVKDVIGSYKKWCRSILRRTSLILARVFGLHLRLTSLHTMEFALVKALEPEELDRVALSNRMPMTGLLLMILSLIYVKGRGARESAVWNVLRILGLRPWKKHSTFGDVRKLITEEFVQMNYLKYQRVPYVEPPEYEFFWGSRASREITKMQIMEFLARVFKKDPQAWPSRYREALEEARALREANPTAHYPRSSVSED
Procedure: Karet tagged with the HA epitope was immunoprecipitated with anti-HA antibody, the precipitated proteins were separated electrophoretically, and gel blots were incubated with anti-necdin. In control experiments the HA-Karet was substituted with vector.
FIGS. 4a-c are co-immunoprecipitation assay results depicting the influence of NGF treatment on TrkA-Karet interaction. FIG. 4a depicts that TrkA-Karet interaction occurred prior to NGF treatment and was enhanced after ligand stimulation for 10 minutes (10 m) or 2 hours (2 h). HA-Karet was electroporated into cell line PC12, and the cells were treated with 50 ng/ml NGF for the indicated time periods in order to activate p75 and TrkA. Karet tagged with the HA epitope was immunoprecipitated with anti-HA antibody, the precipitated proteins were separated electrophoretically, and gel blots were incubated with anti-TrkA antibody (RTA). FIG. 4b depicts that necdin seems to compete with TrkA for binding to Karet. myc-Karet was electroporated into necdin stable cell line, and the cells were treated with 50 ng/ml NGF for the indicated time periods. Karet tagged with the myc epitope was immunoprecipitated with anti-myc antibody, the precipitated proteins were separated electrophoretically, and gel blots were incubated with anti-TrkA antibody (RTA). […] A blot from the same experiment was stripped and re-incubated with anti-necdin antibody. […]

EGFR = target: T3, EGFR (Homo sapiens, UniProt P00533); test: Co-immunoprecipitation of HA-Karet with EGFR in HEK cells; assay type: binding; details: co-transfected HEK cells
T3 construct: expressed in transfected cells; host or cells: HEK cells
Procedure: FIG. 3g is a co-immunoprecipitation assay depicting co-immunoprecipitation of HA-Karet with EGFR in co-transfected HEK cells. Cells were co-transfected with Ha Karet or control vector and EGFR. Cells were lysed with NP40, the HA-beads (i.e., beads conjugated to HA antibody) were blocked with Hek lysate, and elution was done for 30 minutes at 37° C. The membranes were probed with anti FLAG antibody. Note the co-immunoprecipitation of Karet with EGFR in HEK cells.

TrkA = target: T4, TrkA; test: Tyr phosphorylation of TrkA in PC12 6.24 cells; assay type: cell-based, human; details: PC12-6.24 cells expressing Karet, anti-phospho-Tyr blot
T4 construct: expressed in transfected cells; host or cells: PC12 6.24 cells (rat PC12 stably overexpressing human TrkA; Hempstead et al., 1992)
T4 sequence (P04629 33-796): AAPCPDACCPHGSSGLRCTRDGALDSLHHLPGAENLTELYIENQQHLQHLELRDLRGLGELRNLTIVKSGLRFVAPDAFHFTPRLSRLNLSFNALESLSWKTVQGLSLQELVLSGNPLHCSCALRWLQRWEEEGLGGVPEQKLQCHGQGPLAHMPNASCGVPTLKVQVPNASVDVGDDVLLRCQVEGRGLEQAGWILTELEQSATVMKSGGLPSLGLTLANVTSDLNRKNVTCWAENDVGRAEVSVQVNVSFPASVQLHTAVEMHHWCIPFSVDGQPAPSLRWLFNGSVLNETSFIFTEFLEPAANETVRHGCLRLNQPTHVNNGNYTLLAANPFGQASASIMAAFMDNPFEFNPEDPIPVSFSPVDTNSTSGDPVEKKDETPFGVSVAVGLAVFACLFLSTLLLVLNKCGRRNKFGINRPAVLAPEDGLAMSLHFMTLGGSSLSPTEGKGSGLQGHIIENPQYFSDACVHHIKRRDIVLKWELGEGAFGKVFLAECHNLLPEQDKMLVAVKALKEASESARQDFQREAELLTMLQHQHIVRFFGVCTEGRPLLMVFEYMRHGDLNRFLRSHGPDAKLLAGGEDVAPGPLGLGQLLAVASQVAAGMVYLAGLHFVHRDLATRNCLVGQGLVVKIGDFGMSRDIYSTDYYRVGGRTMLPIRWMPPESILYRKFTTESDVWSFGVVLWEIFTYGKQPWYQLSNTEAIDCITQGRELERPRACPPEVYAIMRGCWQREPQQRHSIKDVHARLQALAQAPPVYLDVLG

COS cells = test: Viability of COS cells expressing Karet; assay type: cell-based
Hek cells = test: Viability (XTT) and morphology of Hek cells co-transfected with Karet and receptors; assay type: cell-based, human; details: 24 hours after transfection; for cell morphology: microscope
Procedure: FIGS. 21a-q are photomicrographs of Hek cells 24 hours after transfection with karet, Trk receptors, EGFR and/or P75 constructs. […] FIG. 21a—cells transfected with TrkA and pcDNA3; FIG. 21b—TrkA and Karet; FIG. 21c—TrkA and Karet F217V; FIG. 21d—Karet and pcDNA4; FIG. 21e—Karet F217V and pcDNA4; FIG. 21f—TrIcA and pcDNA3; FIG. 21g—TrkB and pcDNA3; FIG. 21h—TrkC and pcDNA3; FIG. 21i—TrkA and Karet;
FIG. 21j—TrkB and Karet; FIG. 21k—TrkC and Karet; FIG. 21l—Karet and pcDNA3; FIG. 21m—TrkC (low concentration) and pcDNA3; FIG. 21n—EGFR-Flag and pcDNA3; FIG. 21o—p75 and pcDNA3; FIG. 21p—EGFR-Flag and Ha-Karet; FIG. 21q—p75 and Ha-Karet.
FIGS. 22a-b are histograms depicting the effect of co-transfection of Karet and TrkA on cell death in Hek (FIG. 22a) or NNR5 (FIG. 22b) cells. FIG. 22a—Hek cells were co-transfected with Karet or control vector and TrkA, TrkB and TrkC. Viability of the cells was measured 24 hours after transfection by XTT. *p<0.05; FIG. 22b—NNR5 cells were co-transfected with Karet or control vector and TrkA, TrkB and TrkC. Cells were analyzed by FACS 24 hours after transfection using the dead/live kit. ** p<0.001.
FIG. 23 is a histogram depicting the effect of co-transfection of EGFR and Karet on cell death in Hek cells. Hek cells were co-transfected with Karet or control vector and p75, EGFR and PTB. Viability of the cells was measured 24 hours after transfection by XTT. ** p<0.001.
Cell proliferation was evaluated using the Cell proliferation assay with XTT reagent (Cat. No. 20-300-1000), Biological Industries, Beth Haemek, Israel, according to manufacturer's instructions.
To test whether Karet is capable of inducing cell death in other cells such as human HEK or NNR5 cells, the cells were transfected with various receptors and Karet constructs and the effect on cell death was determined by microscopic observation of cell morphology and using cell viability assays, as follows.

TrkB = target: T5, TrkB (Homo sapiens, UniProt Q16620); test: Co-immunoprecipitation of Ha Karet with TrkB in Hek cells; assay type: binding; details: co-transfected Hek cells
T5 construct: expressed in transfected cells; host or cells: Hek cells
Procedure: as §1

[1] = Hek cells co-transfected with TrkA

Karet: full-length mouse Karet protein (SEQ ID NO:1), PTB domain protein, expressed from pcDNA3 with HA tag
co-immunoprecipitation with TrkC (TrkC): co-immunoprecipitated
interaction with necdin (necdin): robust and constant
co-immunoprecipitation with EGFR (EGFR): co-immunoprecipitation
phosphorylation of TrkA (TrkA): significantly enhanced the phosphorylation of the receptor
cell viability (COS cells): no reduction in cell viability
decrease in living cells (Hek cells; HEK cells co-transfected with Karet and TrkA, XTT): 50%
decrease in cell viability (Hek cells; Hek cells co-transfected with EGFR and Karet, XTT): 40%
cell morphology (Hek cells; Hek cells co-transfected with EGFR): morphology change which is consistent with cell death
cell morphology (Hek cells; [1]): morphology change which is consistent with cell death
co-immunoprecipitation with TrkB (TrkB): co-immunoprecipitated

Karet F217V: full-length mouse Karet with phenyl alanine at position 217 point mutated to valine
cell morphology (Hek cells; [1]): transfection-induced cell death
